This is an account of results in patent US20250277023A1 (published 2025).

Sequences and labels used below:
B1: R1084: PD-L1_VH (G44C)_IL15RA/PD-L1_VL(Q101C)_IL15/TIGIT-Fab (bispecific antibody)
chain 1: QVQLQESGPGLVKPSETLSLTCAVYGDSITSGYWNWIRKPPGKCLEYIGYISYTGSTYQNPSLKSRITMSRDTSKNQYYLKLSSVTAADTAVYYCARSRAWIRTYFDYWGQGTLVTVSSGGGGSGGGGSGGGGSGGGGSGITCPPPMSVEHADIWVKSYSLYSRERYICNSGFKRKAGTSSLTECVLNKATNVAHWTTPSLKCIRDPALVHQRPAPPSTVTTAGVTPQPESLSPSGKEPAASSPSSNNTAATTAAIVPGSQLMPSKSPSTGTTEISSHESSHGTPSQTTAKNWELTASASHQPPGVYPQGHSDTTEPKSSDKTHTCPPCPAPELLGGPSVFLFPPKPKDTLMISRTPEVTCVVVDVSHEDPEVKFNWYVDGVEVHNAKTKPREEQYNSTYRVVSVLTVLHQDWLNGKEYKCKVSNKALPAPIEKTISKAKGQPREPQVYTLPPSREEMTKNQVSLTCRVKGFYPSDIAVEWESNGQPENNYKTTPPVLKSDGSFFLASKLTVDKSRWQQGNVFSCSVMHEALHNHYTQKSLSLSPGK
chain 2: DIQMTQSPSSLSASVGDRVTITCSVSSSISSSNLHWYQQKPGKAPKPWIYGTSNLASGVPSRFSGSGSGTDYTLTISSLQPEDFATYYCQQWSSYPLTFGCGTKLEIKGGGGSGGGGSGGGGSGGGGSGNWVNVISDLKKIEDLIQSMHIDATLYTESDVHPSCKVTAMKCFLLELQVISLESGDASIHNTVQDLIILANNSLSSNGNVTESGCKECEELEEKNIKEFLQSFVHIVQMFINTS
heavy: QVQLVQSGAEVKKPGSSVKVSCKASGYSFTSYWMNWVRQAPGQGLEWIGMIRPSDSETRLNQMFKDRVTITVDKSTSTAYMELSSLRSEDTAVYYCAGIHDYGHGAYWGQGTLVTVSSASTKGPSVFPLAPSSKSTSGGTAALGCLVKDYFPEPVTVSWNSGALTSGVHTFPAVLQSSGLYSLSSVVTVPSSSLGTQTYICNVNHKPSNTKVDKRVEPKSCDKTHTCPPCPAPELLGGPSVFLFPPKPKDTLMISRTPEVTCVVVDVSHEDPEVKFNWYVDGVEVHNAKTKPREEQYNSTYRVVSVLTVLHQDWLNGKEYKCKVSNKALPAPIEKTISKAKGQPREPQVYTLPPSREEMTKNQVSLWCLVKGFYPSDIAVEWESNGQPENNYDTTPPVLDSDGSFFLYSDLTVDKSRWQQGNVFSCSVMHEALHNHYTQKSLSLSPGK
light: DIQMTQSPSSLSASVGDRVTITCRASENIYSNLAWYQQKPGKSPKLLVYAASHLPDGVPSRFSGSGSGTDYSLTISSLQPEDFATYYCQHFWGTPRTFGQGTKLEIKRTVAAPSVFIFPPSDEQLKSGTASVVCLLNNFYPREAKVQWKVDNALQSGNSQESVTEQDSKDSTYSLSSTLTLSKADYEKHKVYACEVTHQGLSSPVTKSFNRGEC
B2: R1086: TIGIT_VH_IL15RA (R35C)/TIGIT_VL_IL15 (E93C)/PD-L1-Fab (bispecific antibody)
chain 1: QVQLVQSGAEVKKPGSSVKVSCKASGYSFTSYWMNWVRQAPGQGLEWIGMIRPSDSETRLNQMFKDRVTITVDKSTSTAYMELSSLRSEDTAVYYCAGIHDYGHGAYWGQGTLVTVSSGGGGSGGGGSGGGGSGGGGSGITCPPPMSVEHADIWVKSYSLYSRERYICNSGFKCKAGTSSLTECVLNKATNVAHWTTPSLKCIRDPALVHQRPAPPSTVTTAGVTPQPESLSPSGKEPAASSPSSNNTAATTAAIVPGSQLMPSKSPSTGTTEISSHESSHGTPSQTTAKNWELTASASHQPPGVYPQGHSDTTEPKSSDKTHTCPPCPAPELLGGPSVFLFPPKPKDTLMISRTPEVTCVVVDVSHEDPEVKFNWYVDGVEVHNAKTKPREEQYNSTYRVVSVLTVLHQDWLNGKEYKCKVSNKALPAPIEKTISKAKGQPREPQVYTLPPSREEMTKNQVSLTCRVKGFYPSDIAVEWESNGQPENNYKTTPPVLKSDGSFFLASKLTVDKSRWQQGNVFSCSVMHEALHNHYTQKSLSLSPGK
chain 2: DIQMTQSPSSLSASVGDRVTITCRASENIYSNLAWYQQKPGKSPKLLVYAASHLPDGVPSRFSGSGSGTDYSLTISSLQPEDFATYYCQHFWGTPRTFGQGTKLEIKGGGGSGGGGSGGGGSGGGGSGNWVNVISDLKKIEDLIQSMHIDATLYTESDVHPSCKVTAMKCFLLELQVISLESGDASIHNTVQDLIILANNSLSSNGNVTESGCKECEELECKNIKEFLQSFVHIVQMFINTS
heavy: QVQLQESGPGLVKPSETLSLTCAVYGDSITSGYWNWIRKPPGKGLEYIGYISYTGSTYQNPSLKSRITMSRDTSKNQYYLKLSSVTAADTAVYYCARSRAWIRTYFDYWGQGTLVTVSSASTKGPSVFPLAPSSKSTSGGTAALGCLVKDYFPEPVTVSWNSGALTSGVHTFPAVLQSSGLYSLSSVVTVPSSSLGTQTYICNVNHKPSNTKVDKRVEPKSCDKTHTCPPCPAPELLGGPSVFLFPPKPKDTLMISRTPEVTCVVVDVSHEDPEVKFNWYVDGVEVHNAKTKPREEQYNSTYRVVSVLTVLHQDWLNGKEYKCKVSNKALPAPIEKTISKAKGQPREPQVYTLPPSREEMTKNQVSLWCLVKGFYPSDIAVEWESNGQPENNYDTTPPVLDSDGSFFLYSDLTVDKSRWQQGNVFSCSVMHEALHNHYTQKSLSLSPGK
light: DIQMTQSPSSLSASVGDRVTITCSVSSSISSSNLHWYQQKPGKAPKPWIYGTSNLASGVPSRFSGSGSGTDYTLTISSLQPEDFATYYCQQWSSYPLTFGQGTKLEIKRTVAAPSVFIFPPSDEQLKSGTASVVCLLNNFYPREAKVQWKVDNALQSGNSQESVTEQDSKDSTYSLSSTLTLSKADYEKHKVYACEVTHQGLSSPVTKSFNRGEC
B3: R1085: TIGIT_VH_IL15RA (P67C)/TIGIT_VL_IL15 (E90C)/PD-L1-Fab (bispecific antibody)
chain 1: B2 chain 1 with C174R, P206C
chain 2: B2 chain 2 with E218C, C221E
heavy: B2 heavy
light: B2 light
B4: R1081: TIGIT_VH (G44C)_IL15RA/TIGIT_VL(Q100C)_IL15/PD-L1-Fab (bispecific antibody)
chain 1: B2 chain 1 with G44C, C174R
chain 2: B2 chain 2 with Q100C, C221E
heavy: B2 heavy
light: B2 light

Changes are numbered by the printed parent chain. Numbers in names are those of the source.

The target of the test is PD-L1 (on CHO-PD-L1 cells) (UniProt Q9NZQ7 19-290). Nature of the test: FACS binding; Fig. 24. For orientation: A flow cytometer gives signals particle by particle.
Sequence of PD-L1 (on CHO-PD-L1 cells) (Q9NZQ7 19-290): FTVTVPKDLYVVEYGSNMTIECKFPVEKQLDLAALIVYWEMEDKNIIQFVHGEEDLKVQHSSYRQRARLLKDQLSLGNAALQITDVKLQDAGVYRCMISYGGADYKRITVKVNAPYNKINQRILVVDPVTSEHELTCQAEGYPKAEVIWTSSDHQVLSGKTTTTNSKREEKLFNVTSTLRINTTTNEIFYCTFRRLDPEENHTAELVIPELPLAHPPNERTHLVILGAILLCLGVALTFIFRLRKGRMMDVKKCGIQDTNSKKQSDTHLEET
In turn, B1 came in with an EC50 of 5.85 nM. B2 yielded an EC50 of 2.02 nM. As to B3, the EC50 was 3.2 nM. This EC50 lies about 1.6-fold higher than the previous one. For the molecule B4, the EC50 stood at 2.37 nM.

A word on the EC50: it is the concentration needed to bring the measured effect to its halfway point. Low values mean higher potency in that assay, high ones lower potency in that assay.
